biological target: EPHB2 (UniProt P29323); experiment: phosphorylation enrichment, bacterial display (enrichment ratio); higher = better substrate or ligand; peptides without Tyr show the background
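Also: 11-residue human phosphosite peptides and single-mutation variants displayed on the E. coli surface, counted by deep sequencing, each peptide's frequency after selection divided by its frequency in the unselected input library; frequency after pTyr selection over input frequency; kinase dosed for 20-30% of maximal phosphorylation in three min.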

Chain of EPHB2 (P29323 whole entry, looked up): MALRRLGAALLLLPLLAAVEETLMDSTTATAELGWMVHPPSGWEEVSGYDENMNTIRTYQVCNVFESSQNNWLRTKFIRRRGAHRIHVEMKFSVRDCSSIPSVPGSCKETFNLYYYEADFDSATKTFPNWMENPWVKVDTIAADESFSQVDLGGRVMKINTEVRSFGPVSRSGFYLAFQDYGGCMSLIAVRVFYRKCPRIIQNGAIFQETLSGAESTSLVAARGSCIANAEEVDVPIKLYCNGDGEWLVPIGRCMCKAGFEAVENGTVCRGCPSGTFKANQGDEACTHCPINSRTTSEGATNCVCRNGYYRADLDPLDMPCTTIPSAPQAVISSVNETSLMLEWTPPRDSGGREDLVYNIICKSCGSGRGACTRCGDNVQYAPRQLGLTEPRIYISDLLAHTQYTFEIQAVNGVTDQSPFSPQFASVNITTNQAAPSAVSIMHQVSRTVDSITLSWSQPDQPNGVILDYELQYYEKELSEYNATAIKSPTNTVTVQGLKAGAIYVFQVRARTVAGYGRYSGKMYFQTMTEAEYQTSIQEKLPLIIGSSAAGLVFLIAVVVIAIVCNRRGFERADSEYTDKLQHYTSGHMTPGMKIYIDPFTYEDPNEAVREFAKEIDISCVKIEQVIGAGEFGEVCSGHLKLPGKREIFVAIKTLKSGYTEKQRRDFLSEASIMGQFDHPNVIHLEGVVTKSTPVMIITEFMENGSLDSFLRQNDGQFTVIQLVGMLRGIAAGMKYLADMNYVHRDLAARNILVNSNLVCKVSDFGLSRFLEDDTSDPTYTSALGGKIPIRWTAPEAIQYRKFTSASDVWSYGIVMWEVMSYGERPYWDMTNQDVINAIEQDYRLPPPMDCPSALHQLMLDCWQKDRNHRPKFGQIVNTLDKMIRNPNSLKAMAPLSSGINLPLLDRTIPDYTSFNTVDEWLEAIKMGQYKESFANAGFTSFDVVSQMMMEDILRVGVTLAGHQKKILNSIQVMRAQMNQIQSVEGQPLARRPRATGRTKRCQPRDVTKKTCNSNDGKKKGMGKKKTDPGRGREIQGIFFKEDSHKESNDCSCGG

Going from CNTIHYNFMCN [TP53_Y234_T230N_YF] to ALWYIYSHTRS [ENG_Y614], the phosphorylation enrichment rises from 0.4 to 0.768.

First: RSFSPYDFQPC [TNS1_Y796_YF]
Second: NAMRRHIEEFQ [MNS1_Y244_Y244H]
The phosphorylation enrichment of the first is higher: 0.929 for the first, 0.411 for the second.

Going from HGAKVYIDPFT [EPHB4_Y590_T587A] to LGGSPYPRVPV [FGFR1_Y701_G703R], the phosphorylation enrichment falls from 0.975 to 0.426.

First: LSQQVYRVNLS [FAT4_Y480_F475L]
Second: RPFVFYFSFLL [PTEN_Y177_R173P_YF]
The phosphorylation enrichment of the first is higher: 0.622 for the first, 0.483 for the second.

Going from IHADICRWFNI [MARS1_Y344_Y344C] to ESPGLYGFLNV [BCR_Y910], the phosphorylation enrichment rises from 0.546 to 0.574.

Compared with FKPGFYNLKEK [LAMA1_Y490_C485Y_YF], DAICFYRMENA [NPHS2_Y195_YF] is higher in phosphorylation enrichment: 0.396 for the first, 0.544 for the second.

First: WFKKFYDANYD [MAPRE2_Y158]
Second: AHAGEYGVEAL [HBA1_Y25_A27V]
The phosphorylation enrichment of the first is lower: 0.529 for the first, 0.631 for the second.

Going from TVMGLYQKSSL [MYH7_Y609_V606M] to PFTRNYYVWAV [CYBA_Y87_R90W], the phosphorylation enrichment rises from 0.516 to 3.42.

First: GSETPYMDRTP [ESS2_Y335_V336M]
Second: REVKAYGAGLL [TH_Y419_G414R]
The phosphorylation enrichment of the first is higher: 0.413 for the first, 0.405 for the second.

Compared with HELYVYKSDEN [DOCK3_Y548_C550S], IIEDPYFGNDS [ACP1_Y132_YF] is lower in phosphorylation enrichment: 0.912 for the first, 0.62 for the second.

First: RSHLSYDVTPE [IQGAP3_Y1098_P1097S]
Second: RLQAAYNLVKR [PFKM_Y103_R100Q]
The phosphorylation enrichment of the first is higher: 0.717 for the first, 0.388 for the second.

Going from IVFVICDEVVK [SLC25A1_Y297_Y297C] to SSEFHCVGGFF [CTSC_Y347_Y347C_YF], the phosphorylation enrichment falls from 0.555 to 0.5.

Going from QEIATYRRLQE [KRT14_Y415_L419Q] to AHAGKYGAEAL [HBA1_Y25_E24K], the phosphorylation enrichment falls from 0.721 to 0.338.

Going from PGVDIYISPNM [PADI3_Y51] to MEFAKYGSLRG [RET_Y809_V804M_YF], the phosphorylation enrichment falls from 0.973 to 0.629.

Sequence VDSNPYSHLMA [UBA5_Y53_R55H] has a phosphorylation enrichment of 0.481.

biological target: EPHB1 (UniProt P54762); experiment: as above
Sequence (P54762 whole entry, looked up): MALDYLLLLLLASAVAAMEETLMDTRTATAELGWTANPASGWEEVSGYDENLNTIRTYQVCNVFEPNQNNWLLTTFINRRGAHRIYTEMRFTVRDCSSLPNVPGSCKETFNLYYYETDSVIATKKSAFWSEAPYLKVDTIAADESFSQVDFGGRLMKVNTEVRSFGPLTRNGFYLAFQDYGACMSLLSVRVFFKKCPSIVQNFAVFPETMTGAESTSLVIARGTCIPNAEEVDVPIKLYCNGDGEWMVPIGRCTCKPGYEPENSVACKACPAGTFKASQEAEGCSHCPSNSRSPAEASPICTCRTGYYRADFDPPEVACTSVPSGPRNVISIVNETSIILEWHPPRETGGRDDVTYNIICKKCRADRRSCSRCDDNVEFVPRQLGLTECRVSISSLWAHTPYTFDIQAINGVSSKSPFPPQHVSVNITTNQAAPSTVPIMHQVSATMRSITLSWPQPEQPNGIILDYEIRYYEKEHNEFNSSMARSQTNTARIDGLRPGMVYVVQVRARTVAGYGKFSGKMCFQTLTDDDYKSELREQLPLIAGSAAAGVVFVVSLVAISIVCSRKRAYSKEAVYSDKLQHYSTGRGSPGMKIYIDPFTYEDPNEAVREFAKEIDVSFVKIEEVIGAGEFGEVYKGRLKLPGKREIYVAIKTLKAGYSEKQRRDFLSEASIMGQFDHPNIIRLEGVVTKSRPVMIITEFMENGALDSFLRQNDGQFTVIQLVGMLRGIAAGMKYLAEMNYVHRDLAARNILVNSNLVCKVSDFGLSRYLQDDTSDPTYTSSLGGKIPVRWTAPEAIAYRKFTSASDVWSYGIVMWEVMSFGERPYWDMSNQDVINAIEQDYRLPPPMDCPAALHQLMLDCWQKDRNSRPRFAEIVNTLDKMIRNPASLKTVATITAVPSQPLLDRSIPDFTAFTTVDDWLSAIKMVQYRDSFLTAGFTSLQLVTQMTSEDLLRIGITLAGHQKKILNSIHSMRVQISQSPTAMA

Going from CNTIHYNFMCN [TP53_Y234_T230N_YF] to ALWYIYSHTRS [ENG_Y614], the phosphorylation enrichment rises from 0.438 to 0.679.

Going from RSFSPYDFQPC [TNS1_Y796_YF] to NAMRRHIEEFQ [MNS1_Y244_Y244H], the phosphorylation enrichment falls from 0.672 to 0.398.

Going from HGAKVYIDPFT [EPHB4_Y590_T587A] to LGGSPYPRVPV [FGFR1_Y701_G703R], the phosphorylation enrichment falls from 1.08 to 0.356.

First: LSQQVYRVNLS [FAT4_Y480_F475L]
Second: RPFVFYFSFLL [PTEN_Y177_R173P_YF]
The phosphorylation enrichment of the first is lower: 0.532 for the first, 0.838 for the second.

Compared with IHADICRWFNI [MARS1_Y344_Y344C], ESPGLYGFLNV [BCR_Y910] is lower in phosphorylation enrichment: 0.639 for the first, 0.586 for the second.

Going from FKPGFYNLKEK [LAMA1_Y490_C485Y_YF] to DAICFYRMENA [NPHS2_Y195_YF], the phosphorylation enrichment rises from 0.434 to 0.645.

Compared with WFKKFYDANYD [MAPRE2_Y158], AHAGEYGVEAL [HBA1_Y25_A27V] is higher in phosphorylation enrichment: 0.477 for the first, 0.492 for the second.

First: TVMGLYQKSSL [MYH7_Y609_V606M]
Second: PFTRNYYVWAV [CYBA_Y87_R90W]
The phosphorylation enrichment of the first is lower: 0.657 for the first, 3.1 for the second.

Going from GSETPYMDRTP [ESS2_Y335_V336M] to REVKAYGAGLL [TH_Y419_G414R], the phosphorylation enrichment falls from 0.571 to 0.487.

Compared with HELYVYKSDEN [DOCK3_Y548_C550S], IIEDPYFGNDS [ACP1_Y132_YF] is lower in phosphorylation enrichment: 1.28 for the first, 0.804 for the second.

Compared with RSHLSYDVTPE [IQGAP3_Y1098_P1097S], RLQAAYNLVKR [PFKM_Y103_R100Q] is lower in phosphorylation enrichment: 0.767 for the first, 0.59 for the second.

Compared with IVFVICDEVVK [SLC25A1_Y297_Y297C], SSEFHCVGGFF [CTSC_Y347_Y347C_YF] is lower in phosphorylation enrichment: 0.652 for the first, 0.564 for the second.

Compared with QEIATYRRLQE [KRT14_Y415_L419Q], AHAGKYGAEAL [HBA1_Y25_E24K] is lower in phosphorylation enrichment: 0.568 for the first, 0.453 for the second.

Going from PGVDIYISPNM [PADI3_Y51] to MEFAKYGSLRG [RET_Y809_V804M_YF], the phosphorylation enrichment falls from 1.17 to 0.427.

Work on VDSNPYSHLMA [UBA5_Y53_R55H] yielded a phosphorylation enrichment of 0.48.

biological target: FGFR1 (UniProt P11362); experiment: as above
Sequence (P11362 whole entry, looked up): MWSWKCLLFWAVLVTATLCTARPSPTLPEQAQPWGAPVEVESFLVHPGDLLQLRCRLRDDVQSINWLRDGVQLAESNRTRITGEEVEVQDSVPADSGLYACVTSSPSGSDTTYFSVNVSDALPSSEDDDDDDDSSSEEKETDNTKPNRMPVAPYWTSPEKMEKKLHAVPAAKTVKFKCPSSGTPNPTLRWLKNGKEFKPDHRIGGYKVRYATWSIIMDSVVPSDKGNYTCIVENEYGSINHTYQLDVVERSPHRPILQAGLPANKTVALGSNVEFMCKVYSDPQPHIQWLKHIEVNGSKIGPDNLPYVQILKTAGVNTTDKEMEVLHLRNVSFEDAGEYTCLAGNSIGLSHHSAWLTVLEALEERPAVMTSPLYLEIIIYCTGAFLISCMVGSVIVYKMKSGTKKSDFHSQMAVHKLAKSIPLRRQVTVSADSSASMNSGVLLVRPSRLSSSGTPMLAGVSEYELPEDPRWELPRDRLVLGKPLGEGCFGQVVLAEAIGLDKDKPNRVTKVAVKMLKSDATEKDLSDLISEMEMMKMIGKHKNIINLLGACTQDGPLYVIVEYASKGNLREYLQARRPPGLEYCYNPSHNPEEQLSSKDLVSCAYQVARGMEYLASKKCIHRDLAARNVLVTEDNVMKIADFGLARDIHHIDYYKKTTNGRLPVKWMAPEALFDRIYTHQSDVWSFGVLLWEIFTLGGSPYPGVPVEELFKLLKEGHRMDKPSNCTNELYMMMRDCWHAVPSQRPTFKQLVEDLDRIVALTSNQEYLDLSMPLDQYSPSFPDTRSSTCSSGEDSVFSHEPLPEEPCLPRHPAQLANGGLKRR

Going from CNTIHYNFMCN [TP53_Y234_T230N_YF] to ALWYIYSHTRS [ENG_Y614], the phosphorylation enrichment falls from 0.513 to 0.487.

Going from RSFSPYDFQPC [TNS1_Y796_YF] to NAMRRHIEEFQ [MNS1_Y244_Y244H], the phosphorylation enrichment falls from 0.66 to 0.348.

First: HGAKVYIDPFT [EPHB4_Y590_T587A]
Second: LGGSPYPRVPV [FGFR1_Y701_G703R]
The phosphorylation enrichment of the first is higher: 1.46 for the first, 0.47 for the second.

Going from LSQQVYRVNLS [FAT4_Y480_F475L] to RPFVFYFSFLL [PTEN_Y177_R173P_YF], the phosphorylation enrichment rises from 0.428 to 0.589.

First: IHADICRWFNI [MARS1_Y344_Y344C]
Second: ESPGLYGFLNV [BCR_Y910]
The phosphorylation enrichment of the first is lower: 0.413 for the first, 0.527 for the second.

First: FKPGFYNLKEK [LAMA1_Y490_C485Y_YF]
Second: DAICFYRMENA [NPHS2_Y195_YF]
The phosphorylation enrichment of the first is lower: 0.513 for the first, 0.624 for the second.

Compared with WFKKFYDANYD [MAPRE2_Y158], AHAGEYGVEAL [HBA1_Y25_A27V] is higher in phosphorylation enrichment: 0.43 for the first, 0.499 for the second.

Compared with TVMGLYQKSSL [MYH7_Y609_V606M], PFTRNYYVWAV [CYBA_Y87_R90W] is higher in phosphorylation enrichment: 0.412 for the first, 9.92 for the second.

Going from GSETPYMDRTP [ESS2_Y335_V336M] to REVKAYGAGLL [TH_Y419_G414R], the phosphorylation enrichment falls from 0.431 to 0.411.

Compared with HELYVYKSDEN [DOCK3_Y548_C550S], IIEDPYFGNDS [ACP1_Y132_YF] is higher in phosphorylation enrichment: 0.684 for the first, 0.695 for the second.

Compared with RSHLSYDVTPE [IQGAP3_Y1098_P1097S], RLQAAYNLVKR [PFKM_Y103_R100Q] is higher in phosphorylation enrichment: 0.473 for the first, 0.525 for the second.

First: IVFVICDEVVK [SLC25A1_Y297_Y297C]
Second: SSEFHCVGGFF [CTSC_Y347_Y347C_YF]
The phosphorylation enrichment of the first is higher: 0.484 for the first, 0.466 for the second.

Going from QEIATYRRLQE [KRT14_Y415_L419Q] to AHAGKYGAEAL [HBA1_Y25_E24K], the phosphorylation enrichment falls from 0.699 to 0.4.

Going from PGVDIYISPNM [PADI3_Y51] to MEFAKYGSLRG [RET_Y809_V804M_YF], the phosphorylation enrichment falls from 1.67 to 0.514.

In the case of VDSNPYSHLMA [UBA5_Y53_R55H], the phosphorylation enrichment is reported as 0.418.

biological target: MERTK (UniProt Q12866); experiment: as above
Sequence (Q12866 whole entry, looked up): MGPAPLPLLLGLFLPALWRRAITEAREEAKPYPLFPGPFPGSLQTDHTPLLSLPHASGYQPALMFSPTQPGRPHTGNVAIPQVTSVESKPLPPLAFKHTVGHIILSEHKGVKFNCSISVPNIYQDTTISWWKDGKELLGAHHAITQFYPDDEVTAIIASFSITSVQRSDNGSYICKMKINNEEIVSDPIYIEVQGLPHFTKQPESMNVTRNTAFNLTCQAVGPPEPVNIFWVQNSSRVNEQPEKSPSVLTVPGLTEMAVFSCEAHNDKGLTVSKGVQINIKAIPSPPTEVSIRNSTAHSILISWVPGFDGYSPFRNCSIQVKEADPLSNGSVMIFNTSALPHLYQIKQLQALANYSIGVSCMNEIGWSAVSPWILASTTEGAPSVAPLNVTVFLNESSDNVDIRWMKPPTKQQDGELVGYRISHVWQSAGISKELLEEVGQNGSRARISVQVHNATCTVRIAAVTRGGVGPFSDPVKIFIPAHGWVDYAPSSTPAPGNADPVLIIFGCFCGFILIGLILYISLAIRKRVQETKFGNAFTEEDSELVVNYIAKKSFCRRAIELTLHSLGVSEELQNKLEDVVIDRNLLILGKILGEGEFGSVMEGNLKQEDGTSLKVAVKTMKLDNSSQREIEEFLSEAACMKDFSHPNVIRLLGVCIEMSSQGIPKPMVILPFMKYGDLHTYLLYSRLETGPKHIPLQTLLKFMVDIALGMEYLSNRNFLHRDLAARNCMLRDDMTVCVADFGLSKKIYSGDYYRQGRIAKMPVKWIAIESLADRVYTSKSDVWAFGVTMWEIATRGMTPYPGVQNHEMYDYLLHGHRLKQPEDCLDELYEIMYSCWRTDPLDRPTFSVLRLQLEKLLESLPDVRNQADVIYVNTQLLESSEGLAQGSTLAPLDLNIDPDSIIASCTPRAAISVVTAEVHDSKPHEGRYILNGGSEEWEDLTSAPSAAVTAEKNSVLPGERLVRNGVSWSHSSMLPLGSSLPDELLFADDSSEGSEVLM

Compared with CNTIHYNFMCN [TP53_Y234_T230N_YF], ALWYIYSHTRS [ENG_Y614] is higher in phosphorylation enrichment: 0.357 for the first, 0.418 for the second.

Going from RSFSPYDFQPC [TNS1_Y796_YF] to NAMRRHIEEFQ [MNS1_Y244_Y244H], the phosphorylation enrichment falls from 1.69 to 0.469.

Going from HGAKVYIDPFT [EPHB4_Y590_T587A] to LGGSPYPRVPV [FGFR1_Y701_G703R], the phosphorylation enrichment falls from 0.535 to 0.4.

Going from LSQQVYRVNLS [FAT4_Y480_F475L] to RPFVFYFSFLL [PTEN_Y177_R173P_YF], the phosphorylation enrichment falls from 0.792 to 0.641.

Compared with IHADICRWFNI [MARS1_Y344_Y344C], ESPGLYGFLNV [BCR_Y910] is higher in phosphorylation enrichment: 0.356 for the first, 1.05 for the second.

Going from FKPGFYNLKEK [LAMA1_Y490_C485Y_YF] to DAICFYRMENA [NPHS2_Y195_YF], the phosphorylation enrichment falls from 0.566 to 0.482.

First: WFKKFYDANYD [MAPRE2_Y158]
Second: AHAGEYGVEAL [HBA1_Y25_A27V]
The phosphorylation enrichment of the first is lower: 0.399 for the first, 0.422 for the second.

Going from TVMGLYQKSSL [MYH7_Y609_V606M] to PFTRNYYVWAV [CYBA_Y87_R90W], the phosphorylation enrichment rises from 0.601 to 6.79.

First: GSETPYMDRTP [ESS2_Y335_V336M]
Second: REVKAYGAGLL [TH_Y419_G414R]
The phosphorylation enrichment of the first is lower: 0.365 for the first, 0.411 for the second.

Going from HELYVYKSDEN [DOCK3_Y548_C550S] to IIEDPYFGNDS [ACP1_Y132_YF], the phosphorylation enrichment rises from 0.487 to 0.651.

First: RSHLSYDVTPE [IQGAP3_Y1098_P1097S]
Second: RLQAAYNLVKR [PFKM_Y103_R100Q]
The phosphorylation enrichment of the first is higher: 0.594 for the first, 0.541 for the second.

First: IVFVICDEVVK [SLC25A1_Y297_Y297C]
Second: SSEFHCVGGFF [CTSC_Y347_Y347C_YF]
The phosphorylation enrichment of the first is lower: 0.333 for the first, 0.412 for the second.

First: QEIATYRRLQE [KRT14_Y415_L419Q]
Second: AHAGKYGAEAL [HBA1_Y25_E24K]
The phosphorylation enrichment of the first is higher: 0.7 for the first, 0.347 for the second.

First: PGVDIYISPNM [PADI3_Y51]
Second: MEFAKYGSLRG [RET_Y809_V804M_YF]
The phosphorylation enrichment of the first is higher: 0.534 for the first, 0.417 for the second.

VDSNPYSHLMA [UBA5_Y53_R55H] was tested, and the phosphorylation enrichment was 0.518.

— the supplement of paper PMC10065799, “High-throughput profiling of sequence recognition by tyrosine kinases and SH2 domains using bacterial peptide display” (eLife, 2023)
